{
  "source": "patent US7230094B2",
  "about": "“Neutral sphingomyelinase antisense ribozyme and uses thereof” (priority 2001, dated 2007)",
  "type_in_all_cases": "cell-based, human",
  "key": {"MG-63 cells [1]": {"tested_on": "MG-63 cells", "assay": "Cell viability by trypan blue staining", "settings": "ribozyme transfected cells, 24 hours, trypan blue, FIG. 8", "method": "FIG. 8 depicts the effect of TNF-α on viability of wild type, ribozyme transfected and wild type/mock transfected cells. Cells ([…]) were seeded in 96 well sterile plastic trays. Upon confluence medium was replaced with serum free minimum essential medium and TNF-α (20 ng/ml). After incubation for 24 h at 37° C., viability of cells were determined by Trypan blue staining. The results represent ±S.D. of three experiments.\nThe population of viable cells was determined using trypan blue staining. Cells (10^4) were seeded in 96 well plates. Twenty-four hours later, the media was replaced with serum-free MEM, and TNF-α in various concentrations was added. After incubation for 24 hours at 37° C., the cells were trypsinized, and viable cells were counted after staining with trypan blue. Values were compared to the original cell count (10^4) and expressed as a percentage."}, "N-SMase": {"tested_on": "N-SMase", "assay": "Neutral sphingomyelinase activity in cell extracts, [14C]sphingomyelin substrate", "settings": "for Neutral SMase activity: MG-63 WT 2.7, L-3 LacZ/sham 2.1", "method": "(§1) Confluent culture of cells were harvested, washed, and pellets lysed in buffer containing 0.1% Triton™ X-100, 25 mM Tris (pH 7.4) buffer, 5 mM EDTA, 1 mM phenylmethylsulfonylfluoride and 2 μg each of chymostatin, leupeptin, antipain, and pepstatin A. The activity levels of acid and neutral sphingomyelinase were measured in cell extracts (100 μg protein) in duplicate as described previously employing […] as the substrate.\n(§2) Activities of A-SMase and N-SMase were also measured according to methods described in Chatterjee, S. and Ghosh, N. (1996) Glycobiology 6:303–311, incorporated herein by reference, with minor modifications. In brief, 5×10^6 MG63 cells were scraped from the culture plates, washed with PBS, and disrupted by repeated passage through a 25-gauge needle. Nuclei and cell debris were pelleted at 800×g for 5 min. Supernatant fluid was collected, and the protein concentration was measured using the Bio-Rad (Hercules, Calif.) protein detection kit. To measure SMase activity, 50 μg of protein was incubated for 90 min (the reaction was linear for up to 120 min) at 37° C. in buffer (200 μl final volume) containing 250 mM sodium acetate and 1 mM EDTA, pH 5.0, for A-SMase or 250 mM Tris-Cl, pH 7.4, with or without 6 mM MgCl2 for N-SMase, and 0.75 μl of [methyl-^14C]sphingomyelin (SM) (0.2 mCi/ml; 56.6 mCi/mmol). Radioactive phosphocholine produced from [^14C]SM was extracted with 800 μl of chloroform-methanol (2:1, vol/vol) and 100 μl of H2O. [^14C]phosphocholine in the aqueous phase was measured by scintillation counting."}, "MG-63 cells [2]": {"tested_on": "MG-63 cells", "assay": "Apoptosis by DAPI staining and counting of apoptotic cells", "settings": "for Apoptosis in response to TNF-α and Fas-L: cells with ribozyme-induced deficiency of N-SMase, TNF-α 20 ng/ml, Fas-L 1 ng/ml, 24 hr", "method": "FIG. 6 depicts a quantitative analysis of the effects of TNF-α, C2-Ceramide and Fas-ligand on apoptosis in mutant (CC) and WT (MG-63) cells, as well as wild type/mock transfected cells. Cells were grown on glass cover slips and incubated for 24 hours with TNF-α (20 ng/ml), cell-permeable ceramide (C2-Ceramide) (10 ng/ml) or Fas-L (1 ng/ml). Cells were fixed and stained with DAPI and photographed at 50× magnification. Apoptotic cells were counted using a hemocytometer. The basal levels of apoptotic cells were: MG-63 (3%); L-3 (3%); and CC (2.8%). Errors bars indicate ±S.D. (N=2).\nWT (MG-63), LacZ (L-3) and mutant (CC) cells were grown on glass cover slips and incubated for 24 hr with TNF-α (20 ng/ml), cell-permeable ceramide (C2-ceramide) (10 ng/ml) or Fas-L (1 ng/ml). Cells were fixed and stained with DAPI stain and photographed (50×). Apoptotic cells were counted using a hemocytometer and compared to total cell counts per field. Basal levels of apoptosis were 3% untransfected, 3% control transfection, and 2.8% ribozyme transfection."}, "A-SMase": {"tested_on": "A-SMase", "assay": "Acid sphingomyelinase activity in cell extracts, [14C]sphingomyelin substrate", "settings": "for Acid SMase activity: MG-63 WT 2.7, L-3 LacZ/sham 2.3, average of two batches; for Reduction in A-SMase activity: ribozyme-transfected cells compared to sham-transfected and untransfected controls", "method": "as §1, §2"}, "N-SMase mRNA": {"tested_on": "N-SMase mRNA", "assay": "N-SMase mRNA by Northern analysis and RT-PCR in transfected MG63 clones", "method": "RNA was originally extracted from a single confluent (90%) T-75 flask using Trizol. […] Next, poly-A^+ RNA was extracted from 3 confluent T-75 flasks, loading 3.5 μg/lane. Northern gels were standard, using 1.2% agarose, 1×MOPS, and 6.5% formaldehyde. RNA was transferred to nylon membranes with a standard wick system. The cDNA probe was derived from the cDNA construct, pHH11. An EcoR-1/SpeI fragment, containing a three hundred base pair probe was prepared. This was radiolabeled with [^32P]-dCTP and the random primer labeling system.\nClone CC had no detectable N-SMase mRNA by Northern analysis, so RT-PCR was performed to quantitate the reduction. Compared to a control-transfected clone (WT), there was a 50% reduction in mRNA in clone CC (ribozyme). This was confirmed by western blot analysis of the transfected and control clones for N-SMase."}, "fibronectin": {"tested_on": "fibronectin", "assay": "Immunocytochemical analysis of cells, fibronectin antibody (specificity control)", "settings": "lines harboring pU1/N-SMase vs pZeoSVLacZ vs untransfected cells", "method": "Wild-type (WT) MG-63 cells and MG-63 cells transfected with LacZ constructs (L-3) and ribozyme expression constructs for the inhibition of N-SMase expression (CC) were analyzed by immunocytochemistry. The antibodies either recognized epitopes in fibronectin (control) or N-SMase. The analysis was performed in duplicates for the MG-63 cell line and the two mutant colonies."}},
  "data": [
    {"molecule": "N-SMase ribozyme: U1 snRNA-derived hammerhead antisense ribozyme targeting N-SMase mRNA, expressed from vector pNSMRz; stably transfected MG63 clones CC and C-B (nucleic acid, listed as Homo sapiens) AUACUUACCUGGCAGGGGAGAUACCAUGAUCACGAAGGUGGUUUUCCCAGGGCGAGGCUUAUCCAUUGGCCUCCGGAUGUGCUGACCCCUGCGAUUUCCCCAAAUGUGGGAAACUCGACUGCAGAAUAUGUCAUCAUAUUGCCUGAUGAGUCCGUGAGGACGAAACCUCUUCACAUGAAAAAGUGGGGCUGCGUUCGCGCUUCCCCG", "values": [
      {"measurement": "Decline in viable cells over a wide range of TNF-α concentrations", "setting": "MG-63 cells [1]", "value": "no significant decline"},
      {"measurement": "Neutral SMase activity", "setting": "N-SMase; MG-63 clone C-B (ribozyme-transfected mutant), average of two batches", "value": 1.0, "unit": "nmol/mg protein/hr"},
      {"measurement": "Neutral SMase activity", "setting": "N-SMase; MG-63 clone CC (ribozyme-transfected mutant), average of two batches of cell pellets", "value": 0.67, "unit": "nmol/mg protein/hr"},
      {"measurement": "Reduction in N-SMase activity", "setting": "N-SMase; ribozyme-transfected cells compared to sham-transfected and untransfected controls", "value": "three-fold reduction"},
      {"measurement": "Basal level of apoptotic cells", "setting": "MG-63 cells [2]; CC (ribozyme transfection), DAPI, 3% untransfected, 3% control transfection", "value": 2.8, "unit": "%"},
      {"measurement": "Apoptosis in response to TNF-α and Fas-L", "setting": "MG-63 cells [2]", "value": "marked hyporesponsiveness"},
      {"measurement": "Apoptosis in response to TNF-α and Fas-L", "setting": "MG-63 cells [2]; listed as antisense ribozyme", "value": "not altered"},
      {"measurement": "Apoptosis in response to TNF-α and Fas-L", "setting": "MG-63 cells [2]; listed as ribozyme", "value": "marked resistance to apoptosis"},
      {"measurement": "Acid SMase activity", "setting": "A-SMase; MG-63 clone C-B (mutant)", "value": 2.2, "unit": "nmol/mg protein/hr"},
      {"measurement": "Acid SMase activity", "setting": "A-SMase; MG-63 clone CC (mutant)", "value": 2.1, "unit": "nmol/mg protein/hr"},
      {"measurement": "Reduction in A-SMase activity", "setting": "A-SMase", "value": "unchanged"},
      {"measurement": "Reduction in A-SMase activity", "setting": "A-SMase; listed as ribozyme", "value": "no discernable reduction"},
      {"measurement": "N-SMase mRNA by Northern analysis", "setting": "N-SMase mRNA; clone CC", "value": "no detectable"},
      {"measurement": "Reduction in N-SMase mRNA by RT-PCR", "setting": "N-SMase mRNA; clone CC compared to a control-transfected clone (WT)", "value": 50, "unit": "%"},
      {"measurement": "Immunohistochemical staining with monoclonal antibody to fibronectin", "setting": "fibronectin", "value": "No differences were observed"}
    ]}
  ]
}
